Consider one substance from patent publication EP4039818A1.

This assay deals with a-sACE2 (enzymatically active soluble ACE2) as measured in Example 7b (UniProt Q9BYF1). Briefly: cell-based or functional assay.

Some results are limits rather than exact numbers.

With “goat polyclonal anti-human ACE2 antibody (R&D Systems, #AF933)”, the enzymatic activity measurement performed according to the enzymatic activity assay of example 3a was more than 5 µg/mL.
